The test system of data set [1] is RNA:DNA hybrid. Description: RNA:DNA unwinding assay. Format: biochemical. The conditions noted are these: 4.79 μM recombinant DDX19A, 1 nM Cy-5-labeled RNA:DNA hybrid, 4 mM ATP, 30°C, 60 min, pH 7.5. How it is done: RNA:DNA unwinding assay was performed as described ([54]). In brief: RNA:DNA hybrids were annealed in vitro in 5 mM Tris/HCl pH 8.5. The sequence of the top RNA strand was: 5′‐[…]‐3′, and the sequence of the bottom DNA strand was 5′-[…]‐3′. The annealed RNA:DNA hybrid has a 5′ ssDNA overhang and is labeled with Cy-5. Unwinding experiments were carried out at 30°C for 60 min in 30 mM Tris–HCl (pH 7.5), 50 mM NaCl, 5 mM MgCl2, 2 mM DTT, 0.01% NP‐40, 0.1 mg/ml BSA, 4 mM ATP, 1 nM Cy-5‐labeled RNA:DNA hybrid substrate, in the presence of 4.79 μM recombinant DDX19A. The reaction was stopped by the addition of SDS to a final concentration of 0.5% and 20 ng proteinase K (20 mg/ml). The reaction was afterward loaded onto a 10% non-denaturing polyacrylamide gel and analysed using a FusionFX detection system (VILBER).

The subject of data set [2] is R-loops from NIH/3T3 cell lysate. As to the kind of experiment: S9.6 antibody IP, co-precipitation of LSD1 and DDX19A. To be noted: NIH/3T3 whole cell lysate, Western blot. Format: cell-based, murine. The method, then:
100 μl Dynabeads® Protein G were pre-blocked with 0.5% BSA/PBS for 2 h at 4°C. 10 × 10^6 non-crosslinked NIH/3T3 cells were harvested, washed once in 1× PBS and lysed in 1 ml Cell Lysis Buffer (85 mM KCl, 5 mM HEPES pH 8, 0.5% NP-40, cOmplete™ EDTA-free PIC) for 15 min on ice. Nuclei were collected by spinning 1 min at 15 000 × g, 4°C. The pellet was resuspended in 750 μl RSB buffer (10 mM Tris–HCl pH 7.5, 200 mM NaCl, 2.5 mM MgCl2, cOmplete™ EDTA-free PIC) supplemented with 0.2% sodium-deoxycholate, 0.1% SDS, 0.05% sodium-lauroyl-sarcosinate and 0.5% Triton X-100. Cells were sonicated for 4 min in an EpiShear Probe Sonicator (20 s pulse, 30 s pause, 40%). After taking 5% as input, samples were transferred to a 15 ml falcon tube and diluted 1:4 by addition of 2.3 ml RSB with 0.5% Triton X-100 (RSB+T). The samples were subjected to pre-clearing with 5 μg mouse IgG and 35 μl Dynabeads® Protein G for 1 h at 4°C. Magnetic beads were locked and the supernatant was split into three Eppendorf tubes. For the S9.6 antibody-specificity control, 40 U of RNAse H (NEB) were added to one of the tubes and all samples were incubated for 10 min at 37°C before adding the IP antibodies. The samples were subjected to IP with 4 μg of either the S9.6 antibody or mouse IgG and 32 μl pre-blocked beads per sample. 10 ng RNase A was added to each tube before rotating at 4°C for 2.5 h. […]

B1: DDX19A: DEAD-box helicase 19A; recombinant GST-tagged for in vitro tests, endogenous in S9.6 IP (protein, UniProt Q9NUU7 2-478, looked up)
ATP-dependent RNA helicase …: ATDSWALAVDEQEAAVKSMTNLQIKEEKVKADTNGIIKTSTTAEKTDEEEKEDRAAQSLLNKLIRSNLVDNTNQVEVLQRDPNSPLYSVKSFEELRLKPQLLQGVYAMGFNRPSKIQENALPMMLAEPPQNLIAQSQSGTGKTAAFVLAMLSRVEPSDRYPQCLCLSPTYELALQTGKVIEQMGKFYPELKLAYAVRGNKLERGQKISEQIVIGTPGTVLDWCSKLKFIDPKKIKVFVLDEADVMIATQGHQDQSIRIQRMLPRNCQMLLFSATFEDSVWKFAQKVVPDPNVIKLKREEETLDTIKQYYVLCSSRDEKFQALCNLYGAITIAQAMIFCHTRKTASWLAAELSKEGHQVALLSGEMMVEQRAAVIERFREGKEKVLVTTNVCARGIDVEQVSVVINFDLPVDKDGNPDNETYLHRIGRTGRFGKRGLAVNMVDSKHSMNILNRIQEHFNKKIERLDTDDLDEIEKIAN
modifications: GST tag
notes: DEAD-box helicase 19A; recombinant GST-tagged for in vitro tests, endogenous in S9.6 IP
In the case of B1, the “ability to resolve RNA:DNA hybrids in vitro” value in data set [1] is reported as “confirmed its ability to resolve RNA:DNA hybrids in vitro”. The “association with R-loops (co-precipitation with S9.6)” value in data set [2] was “strong physical association”.

Values taken from paper PMC8096265, “A functional LSD1 coregulator screen reveals a novel transcriptional regulatory cascade connecting R-loop homeostasis with epigenetic regulation” (Nucleic Acids Research, 2021).
